The source of these data is US20020156245A1.

By Kd is commonly meant the free concentration of one partner at which half of the binding sites on the other are occupied at equilibrium, for simple one-to-one binding.

In the experiment the target is human Ptch (SEQ ID NO:4) (human) (UniProt Q13635). The experiment in a line: Scatchard analysis of displacement of 125I-Shh from 293 cells expressing Ptch. (In a radioligand displacement assay an active substance lowers the binding of a labelled ligand.)
Substance “Ihh (SEQ ID NO:29) (from UniProt P97812 28-202) (ligand)” came in with a Kd of 1 nM.
“Dhh (SEQ ID NO:13) (from UniProt Q61488 23-198) (ligand)” came in with a Kd of 2.6 nM.
In the case of “Shh (SEQ ID NO:14), 19 kD amino terminal fragment of murine Shh (from UniProt Q62226 25-198) (ligand)”, the Kd came to 1 nM.
